System: MS2 coat protein
Assay: apparent KD of MS2 coat protein; designed switch direction (-1 OFF switch, 1 ON switch): -1; higher = weaker reporter binding
How it was run: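 Apparent KD, taken as the median over clusters for each design, was obtained by curve-fitting normalised cluster fluorescence. Designed RNA switches had been transcribed on Illumina chips by stalled E. coli RNA polymerase and titrated with SNAP-549-labelled MS2 coat protein, doubling from 0.7 or 1.5 nM to 3 µM.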

[1] = input ligand: microRNA oligo, concentration not stated
[2] = Eterna round: R95, input ligand: microRNA oligo, concentration not stated
[3] = Eterna round: R95, input ligand: FMN 200 uM
[4] = Eterna round: R95, input ligand: none

With “AAGAAUUAGUCAGGAUAUAGCGGCCAAGAACUACUAGAAGGGAUUAGACAUGAGGAUCACCCAUGUGAUCUUUUUGUAGGGACG [Eternabot solution 15] (Eterna round: R96, puzzle: Exclusion NG 1)” the “apparent KD of MS2 coat protein” value (input ligand: FMN 200 uM) was 32.6 nM, the “apparent KD of MS2 coat protein” value [1] was 25.7 nM and the “apparent KD of MS2 coat protein” value (input ligand: none) was 41.2 nM.

In the case of “AAGACAAAUGUAGGAUAUGCGUGGCGAAGCUAUGCAGAAGGACAUGAGGAUCACCCAUGUCUAAGCGUCUGCGUACAGAUGCUA [JL eng1 1.35 mod 8] (Eterna round: R96, puzzle: Exclusion NG 1)”, the “apparent KD of MS2 coat protein” value (input ligand: FMN 200 uM) is reported as 19.9 nM, the “apparent KD of MS2 coat protein” value [1] is reported as 10.7 nM and the “apparent KD of MS2 coat protein” value (input ligand: none) is reported as 18.4 nM.

For “AAGAGCAAGGCAGGAUAUCACAUGAGGAUCACCCAUGUAUCCGAAAGAACAACGCCCGCGUUGUGUGAGAAGGGUCUAUGCAGG [Eternabot solution 10] (Eterna round: R96, puzzle: Exclusion NG 2)”, the “apparent KD of MS2 coat protein” value (input ligand: FMN 200 uM) was 370 nM, the “apparent KD of MS2 coat protein” value [1] was 61.6 nM and the “apparent KD of MS2 coat protein” value (input ligand: none) was 75.8 nM.

In the case of “AAGAGUGCAGGAUAUACUUGGUAGGGCGGGUGGAUGGUUUGACAUGAGGAUCACCCAUGUAGAAGGGCAGAGAG [JR_Exclu2_Sub054] (puzzle: Exclusion 2)”, the “apparent KD of MS2 coat protein” value [2] is reported as 31.4 nM.

With “AAGAGUGCAGGAUAUACUUGUUAGGACGGUUGGAUGAAUGGACAUGAGGAUCACCCAUGUAGAAGGGCAGAGAG [JR_Exclu2_Sub051] (puzzle: Exclusion 2)” the “apparent KD of MS2 coat protein” value [3] was 33.9 nM, the “apparent KD of MS2 coat protein” value [2] was 30.2 nM and the “apparent KD of MS2 coat protein” value [4] was 41.3 nM.

“AAGAUGUAAGGAUAUGCUGCUCGUCACAAAAGUGAUGAGUAGCAGAAGGUACAUGAGGAUCACCCAUGUAGAGA [Opal 38] (Eterna round: R96, puzzle: Exclusion 4)” was tested, and the “apparent KD of MS2 coat protein” value (input ligand: FMN 200 uM) was 60.6 nM, the “apparent KD of MS2 coat protein” value [1] was 18.2 nM and the “apparent KD of MS2 coat protein” value (input ligand: none) was 22.7 nM.

With “AAGAUGUCAGGAUAUUAGUAGUAAAUGAAUAAAAUUAUUACUGAGAAGGGACAUGAGGAUCACCCAUGUGUCUU [Mat - Exclusion 4 - Eli Mod - D11] (Eterna round: R97, puzzle: Exclusion 4)” the “apparent KD of MS2 coat protein” value (input ligand: FMN 200 uM) was 80.2 nM and the “apparent KD of MS2 coat protein” value (input ligand: none) was 19.8 nM.

In the case of “AAGAUGUGAGGAUAUCUAUUGAAGCGCGGUUCCCGGCAGAGAGAGAAGGCACAUGAGGAUCACCCAUGUAUAGC [Eternabot (L1) Solution 53] (Eterna round: R97, puzzle: Exclusion 4)”, the “apparent KD of MS2 coat protein” value (input ligand: FMN 200 uM) is reported as 56.5 nM and the “apparent KD of MS2 coat protein” value (input ligand: none) is reported as 20.6 nM.

For “AAGAUGUUAGGAUAUCGAAGGUUGUGGCAGGCGGGAAUUUGCGAGAAGGAACAUGAGGAUCACCCAUGUGAAAU [JR_Exclu4_Sub043] (puzzle: Exclusion 4)”, the “apparent KD of MS2 coat protein” value [2] was 19.7 nM.

For “AAGAUUAGGAAAGGAUAUAAAGAGAAACAAAGUGCACAUGAGGAUCACCCAUGUACUGACACGCGUUAGAAGGUUCCAGUCCUC [Eternabot solution 40] (Eterna round: R96, puzzle: Exclusion NG 2)”, the “apparent KD of MS2 coat protein” value (input ligand: FMN 200 uM) was 18.1 nM, the “apparent KD of MS2 coat protein” value [1] was 15.5 nM and the “apparent KD of MS2 coat protein” value (input ligand: none) was 25.4 nM.

With “AAGCACCAUGUGAGGAUAUGCCACGGAACCGAUGGGCAGAAGGCACAUGAGGAUCACCCAUGUGACCGGUGGAU [Eternabot (Original) Solution 48] (Eterna round: R97, puzzle: Brourd's mod of Exclusion 4)” the “apparent KD of MS2 coat protein” value (input ligand: FMN 200 uM) was 236 nM and the “apparent KD of MS2 coat protein” value (input ligand: none) was 44.6 nM.

“AAGCCUCUUGUCAGGAUAUCUGUCGGUCCUCCAAGAGAGAAGGGACAUGAGGAUCACCCAUGUAAGCCCAGGGA [Qubere] (puzzle: Brourd's mod of Exclusion 4)” was tested, and the “apparent KD of MS2 coat protein” value [2] was 13.5 nM.

For “AAGCGCGUAGGAUAUACAUGAGGAUCACCCAUGUGAGGAAGGAGUAGGAAGUGUGGAAGUAGAAGGACGGAGAG [JR_Exclu3_Sub077] (puzzle: Exclusion 3)”, the “apparent KD of MS2 coat protein” value [3] was 34.4 nM, the “apparent KD of MS2 coat protein” value [2] was 31.1 nM and the “apparent KD of MS2 coat protein” value [4] was 37.4 nM.

“AAGGAUAGAGGAUAUACAUAGAUACAGAUUCAUGUAGAACUACAUGAGGAUCACCCAUGUAGAAGGCUAUCCUA [Mat - Same state - Mayanna Mod - D121] (Eterna round: R96, puzzle: Exclusion 2)” was tested, and the “apparent KD of MS2 coat protein” value (input ligand: FMN 200 uM) was 316 nM, the “apparent KD of MS2 coat protein” value [1] was 24.8 nM and the “apparent KD of MS2 coat protein” value (input ligand: none) was 33.3 nM.

With “AAGGAUAGAGGAUAUACAUAGAUACAGAUUCAUGUAGAAUUACAUGAGGAUCACCCAUGUAGAAGGCUAUCCUA [Fiskers Ex 2 - 1] (puzzle: Exclusion 2)” the “apparent KD of MS2 coat protein” value [2] was 285 nM.

With “AAGGAUAGAGGAUAUACAUAGAUACAGAUUCAUGUAGACCUACAUGAGGAUCACCCAUGUAGAAGGCUAUCCUA [Fiskers Ex 2 - 11] (puzzle: Exclusion 2)” the “apparent KD of MS2 coat protein” value [2] was 16 nM.

With “AAGGGACAUGAGGAUCACCCAUGUGAGGAUAUGCUAUGGAAAAUAAAAAAUAAACAUAGCAGAAGGCAUAAAAA [Mat - Exclusion 1 - Eli mod - D37] (Eterna round: R96, puzzle: Exclusion 1)” the “apparent KD of MS2 coat protein” value (input ligand: FMN 200 uM) was 89.2 nM, the “apparent KD of MS2 coat protein” value [1] was 65.3 nM and the “apparent KD of MS2 coat protein” value (input ligand: none) was 99.2 nM.

For “AAGGGUACUUUCGGAACGACAUGAGGAUCACCCAUGUAUACUGAGGAUAUCCACUACUAAGGACGGGAGAAGGCAGUGUAAUGU [Ex NG3 #78] (Eterna round: R96, puzzle: Exclusion NG 3)”, the “apparent KD of MS2 coat protein” value (input ligand: FMN 200 uM) was 18.8 nM, the “apparent KD of MS2 coat protein” value [1] was 13.6 nM and the “apparent KD of MS2 coat protein” value (input ligand: none) was 18.5 nM.

For “AAGGGUGCUUUCAGAACGACAUGAGGAUCACCCAUGUAGACUGAGGAUAUCUACUCCUAAGGACGGGAGAAGGUAGUGUAAUGC [Ex NG3 #66] (Eterna round: R96, puzzle: Exclusion NG 3)”, the “apparent KD of MS2 coat protein” value (input ligand: FMN 200 uM) was 22.8 nM, the “apparent KD of MS2 coat protein” value [1] was 17.7 nM and the “apparent KD of MS2 coat protein” value (input ligand: none) was 26.1 nM.
